The source of these data is US20120093724.

Series [1] concerns the target semenogelin II (UniProt Q02383).
The target of series [2] is semenogelin I (UniProt P04279).
Sequence of semenogelin I (P04279 24-462): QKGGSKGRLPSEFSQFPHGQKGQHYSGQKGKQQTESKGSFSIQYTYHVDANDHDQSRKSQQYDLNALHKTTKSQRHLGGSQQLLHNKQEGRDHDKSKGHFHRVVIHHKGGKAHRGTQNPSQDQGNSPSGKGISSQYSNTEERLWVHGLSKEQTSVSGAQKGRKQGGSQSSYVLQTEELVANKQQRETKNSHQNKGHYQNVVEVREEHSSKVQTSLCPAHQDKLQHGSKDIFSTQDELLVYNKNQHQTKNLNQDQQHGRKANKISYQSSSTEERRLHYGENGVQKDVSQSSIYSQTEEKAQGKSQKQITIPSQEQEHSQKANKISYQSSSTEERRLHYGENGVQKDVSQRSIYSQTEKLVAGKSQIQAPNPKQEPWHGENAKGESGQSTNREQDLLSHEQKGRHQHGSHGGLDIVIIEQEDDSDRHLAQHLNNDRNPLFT

Sequence of semenogelin II (Q02383 24-582): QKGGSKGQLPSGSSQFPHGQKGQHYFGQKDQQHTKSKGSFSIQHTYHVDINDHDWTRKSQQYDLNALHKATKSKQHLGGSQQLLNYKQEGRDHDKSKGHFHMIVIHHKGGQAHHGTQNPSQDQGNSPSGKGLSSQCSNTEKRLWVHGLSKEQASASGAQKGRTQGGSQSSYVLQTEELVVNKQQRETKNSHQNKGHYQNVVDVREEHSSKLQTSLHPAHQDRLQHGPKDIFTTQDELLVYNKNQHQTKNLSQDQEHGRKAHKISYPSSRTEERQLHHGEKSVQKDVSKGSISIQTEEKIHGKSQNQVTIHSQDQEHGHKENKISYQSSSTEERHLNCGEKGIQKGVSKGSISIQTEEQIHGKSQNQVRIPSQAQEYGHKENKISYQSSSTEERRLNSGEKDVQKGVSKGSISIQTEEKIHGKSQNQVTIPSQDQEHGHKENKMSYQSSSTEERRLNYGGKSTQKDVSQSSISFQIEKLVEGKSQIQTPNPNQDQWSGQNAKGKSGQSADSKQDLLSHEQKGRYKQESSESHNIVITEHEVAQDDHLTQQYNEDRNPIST

As for human glandular kallikrein 2, in series [1], the number of cleavage sites sequenced (cleavage sites) was 7 and the “proteolytic cleavage (fragments by HPLC)” value is recorded as “Cleavage of either Sg I or Sg II with hK2 results in generation of a multitude of peptides”. Also, in series [2], the number of cleavage sites sequenced (cleavage sites) was determined as 4 and the “proteolytic cleavage (fragments by HPLC)” value is given as “Cleavage of either Sg I or Sg II with hK2 results in generation of a multitude of peptides”.
